Source: patent publication US11219221B2 (FarmHannong Co., Ltd., priority 2017, dated 2022)
Changes are numbered by the printed parent chain. In names and notes the source's numbering stands.

B1: A162L + V305M + F360M (protein)
chain: MLDSLIVGAGISGLSAAHTLQKQQTQFLVTESQGRVGGNITTNRQGDYLWEEGPNSFAPTEDLLRLAVEVGLKEDLVFADRRLPRFVYWNQQLHPVPMSPPAALKTQLLSEAGKWRAALGALGFVGGLVGREEETVRQFFTRHLGTEVTERLVAPFVSGVYLGDVDQLSAQAAFRRVFEFAQLGGGLAAGGILARRQAPPKAPPDPSLPETKTGQLGSFREGLEMLPRAIASQLGDRLKLQWRLTHLEITPQQTYLAHFNTPDGPQQIATRTLILTTPAPITADLLKPLTPALHGVLKEIYYPPMACVVLAYPRAASARPLEGFGHLIPRNQGIRTLGTIWSSCLFPGRTPEGEHLLTNMIGGATDPGIAQLDPEEIAQAVHQDLCKILIRPEFTPKILAVRLWKQAIPQYTLGHLQRLATLEQELSKFPGLHILANYTDGVALGDCVKRGVAVAQKIRSRE
modifications: Synthetic (Protoporphyrinogen IX oxidase (CyPPO16) of Spirulina subsalsa)
B2: A162C + V305M + L327T + F360M (protein)
chain: B1 chain with L162C, L327T
modifications: Synthetic (Protoporphyrinogen IX oxidase (CyPPO16) of Spirulina subsalsa)
B3: V305M + L327T + F360M (protein)
chain: B1 chain with L162A, L327T
modifications: Synthetic (Protoporphyrinogen IX oxidase (CyPPO16) of Spirulina subsalsa)
B4: R85A + V160C + A162L + V305M + F360M (protein)
chain: B1 chain with R85A, V160C
modifications: Synthetic (Protoporphyrinogen IX oxidase (CyPPO16) of Spirulina subsalsa)
B5: V160C + A162C + V305M + L327T + F360M (protein)
chain: B1 chain with V160C, L162C, L327T
modifications: Synthetic (Protoporphyrinogen IX oxidase (CyPPO16) of Spirulina subsalsa)
B6: V304M + F359I: CyPPO17 variant (protein)
chain: MEVDVAIVGGGLSGLSVAWRLQQSAPQYSGVLLEASDRLGGNITTQGAEGFVWELGPNSFAPTPALLQLIAEVGLHSELIRGDRHLPRYIYWRGELYPLEPTRPLALATSNLLSPWGKVRAALGALGFVPPYLGSGDESVNSFFRRHLGQEVAERLVAPFVSGVYAGDPQQLSAAAAFRRIAQLEKLGGGLIAGALRLRRQQPPKPRPPAEVQMRPGELGSFKEGLAALPRAIAQQLKAPVHLQTPVEAITPEPNGGYLLRSGEQTWQARSVVLATPAYQTAALVAPFQPAIARVLAAIPYPTMACVVLAYPAGLGRSVRPGFGVLIPRGQGIRTLGTIWSSCLFPQRTPAGWQVFTSIIGGATDPDLASLREEAIVQQVQQDLTRLLDLPAAKARLLGMKVWRRAIPQYLVGYPQQWQQVTHALSQTPGLFLCSNYAEGVALGDRVEHGNRTAAAVAAYLSGGQS
modifications: Synthetic (Protoporphyrinogen IX oxidase (CyPPO17) of Thermosynechococcus sp. NK55a)
notes: CyPPO17 variant
B7: V304M + L326T + F359M: CyPPO17 variant (protein)
chain: B6 chain with L326T, I359M
modifications: Synthetic (Protoporphyrinogen IX oxidase (CyPPO17) of Thermosynechococcus sp. NK55a)
notes: CyPPO17 variant
B8: R88A + V164C + A166C + V304M + L326T + F359M: CyPPO17 variant (protein)
chain: B6 chain with R88A, V164C, A166C, L326T, I359M
modifications: Synthetic (Protoporphyrinogen IX oxidase (CyPPO17) of Thermosynechococcus sp. NK55a)
notes: CyPPO17 variant
B9: V164C + A166L + L326T + F359M: CyPPO17 variant (protein)
chain: B6 chain with V164C, A166L, M304V, L326T, I359M
modifications: Synthetic (Protoporphyrinogen IX oxidase (CyPPO17) of Thermosynechococcus sp. NK55a)
notes: CyPPO17 variant
B10: V164C + A166L + V304M + L326T + F359M: CyPPO17 variant (protein)
chain: B6 chain with V164C, A166L, L326T, I359M
modifications: Synthetic (Protoporphyrinogen IX oxidase (CyPPO17) of Thermosynechococcus sp. NK55a)
notes: CyPPO17 variant
B11: R88A + V164C + A166L + L326T + F359M: CyPPO17 variant (protein)
chain: B6 chain with R88A, V164C, A166L, M304V, L326T, I359M
modifications: Synthetic (Protoporphyrinogen IX oxidase (CyPPO17) of Thermosynechococcus sp. NK55a)
notes: CyPPO17 variant

test system: CyPPO16; assay: Herbicide tolerance test of CyPPO16 wild type and variants in PPO-deficient E. coli BT3(ΔPPO); format: cell-based, Spirulina subsalsa; details: BT3(ΔPPO) transformants, two or more amino acid mutations; dark, 37° C., 16 to 20 hours; relative to wild type at highest concentration (50, 200 μM)
Experimental: (§1) The mutated CyPPO gene obtained from the Example 2 was transformed to BT3 (ΔPPO) strain which is deficient of PPO activity and cultured in LB media with PPO-inhibiting herbicide, thereby examining whether growth of transformed BT3 was not inhibited.
(§2) BT3 competent cells were transformed with the pET303-CyPPO16 and pET303-CyPPO17 plasmids and those with a mutation(s) constructed in Example 2 respectively, and were cultured in LB agar media containing carbenicillin (Gold Biotechnology, Co., Ltd.).
(§3) Single colony of E. coli transformed with each CyPPO gene was cultured in 3 ml of LB broth containing carbenicillin overnight, and then was subcultured until absorbance (0D600) reached 0.5 to 1. Then, it was diluted with LB broth to OD600=0.5. Again, the diluted solution was serially diluted 4 times by a factor of one tenth.
(§4) The LB agar media (LB 25 g/l, Bacto agar 15 g/l) containing carbenicillin (100 μg/ml) and 0 to 4,000 μM of various herbicides dissolved in DMSO was prepared. Next, 10 μl of each diluted solution was dropped on the plate and cultured at 37° C. under light (Tables 7 and 9, FIGS. 2 to 6, and 18 to 22) or dark (Tables 8 and 10, FIGS. 7 to 17, and 23 to 33) for 16 to 20 hours. Then, extent of tolerance was evaluated.
(§5) The extent of herbicide tolerance of the mutated genes was evaluated by comparing that of mutated genes with that of wild type. The relative tolerance was represented with “+” as a factor of 10 times. Evaluation result was listed in Tables 7 to10 and FIGS. 2 to 33:
(§6) In Tables 7 to 10, tolerance level was presented as of tolerance of wild type and of variants equivalent to that of wild type, and was done as ‘+’ per each 10 fold resistance until ‘+++++’ as maximal resistance. (Tolerance level was evaluated by relative growth level of variants to that of wild type in the media containing highest concentration of herbicide; ‘+’=1-9 fold higher tolerance, ‘++’=10-99 fold higher tolerance, ‘+++’=100-999 fold higher tolerance, ‘++++’=1,000-9,999 fold higher tolerance, ‘+++++’=more than 10,000 fold higher tolerance)
(§7) The concentrations of herbicides were written above the photographs of tolerance test. A dilution series (0D600=0.5, 0.05, 0.005, 0.0005, 0.00005) was made and spotted on LB agar plates supplemented with herbicides.

| Molecule | Herbicide tolerance, tiafenacil |
| --- | --- |
| B1 | +++++ (‘+++++’=more than 10,000 fold higher tolerance) |
| B2 | +++++ (‘+++++’=more than 10,000 fold higher tolerance) |
| B3 | +++++ (‘+++++’=more than 10,000 fold higher tolerance) |
| B4 | +++++ (‘+++++’=more than 10,000 fold higher tolerance) |
| B5 | +++++ (‘+++++’=more than 10,000 fold higher tolerance) |

same assay, conditions: BT3(ΔPPO) transformants, two or more amino acid mutations; dark; relative to wild type at highest concentration (25, 50 μM)

| Molecule | Herbicide tolerance, flumioxazin |
| --- | --- |
| B1 | +++++ (‘+++++’=more than 10,000 fold higher tolerance) |
| B2 | +++++ (‘+++++’=more than 10,000 fold higher tolerance) |
| B3 | +++++ (‘+++++’=more than 10,000 fold higher tolerance) |
| B4 | +++++ (‘+++++’=more than 10,000 fold higher tolerance) |
| B5 | +++++ (‘+++++’=more than 10,000 fold higher tolerance) |

same assay, conditions: BT3(ΔPPO) transformants, two or more amino acid mutations; dark; relative to wild type at highest concentration (2000, 4000 μM)

| Molecule | Herbicide tolerance, sulfentrazone |
| --- | --- |
| B1 | ++++ (‘++++’=1,000-9,999 fold higher tolerance) |
| B2 | ++++ (‘++++’=1,000-9,999 fold higher tolerance) |
| B3 | ++++ (‘++++’=1,000-9,999 fold higher tolerance) |
| B4 | +++++ (‘+++++’=more than 10,000 fold higher tolerance) |
| B5 | +++++ (‘+++++’=more than 10,000 fold higher tolerance) |

test system: CyPPO17; assay: Herbicide tolerance test of CyPPO17 wild type and variants in PPO-deficient E. coli BT3(ΔPPO); format: cell-based, Thermosynechococcus sp. NK55a; details: BT3(ΔPPO) transformants, two or more amino acid mutations; dark, 37° C., 16 to 20 hours; relative to wild type at highest concentration (50, 200 μM)
Experimental: as §1, §2, §3, §4, §5, §6, §7

| Molecule | Herbicide tolerance, tiafenacil |
| --- | --- |
| B6 | +++ (‘+++’=100-999 fold higher tolerance) |
| B7 | ++++ (‘++++’=1,000-9,999 fold higher tolerance) |
| B8 | +++++ (‘+++++’=more than 10,000 fold higher tolerance) |
| B9 | +++++ (‘+++++’=more than 10,000 fold higher tolerance) |
| B10 | +++++ (‘+++++’=more than 10,000 fold higher tolerance) |
| B11 | +++++ (‘+++++’=more than 10,000 fold higher tolerance) |

same assay, conditions: BT3(ΔPPO) transformants, two or more amino acid mutations; dark; relative to wild type at highest concentration (100, 200 μM)

| Molecule | Herbicide tolerance, flumioxazin |
| --- | --- |
| B6 | +++ (‘+++’=100-999 fold higher tolerance) |
| B7 | ++++ (‘++++’=1,000-9,999 fold higher tolerance) |
| B8 | +++++ (‘+++++’=more than 10,000 fold higher tolerance) |
| B9 | +++++ (‘+++++’=more than 10,000 fold higher tolerance) |
| B10 | +++++ (‘+++++’=more than 10,000 fold higher tolerance) |
| B11 | +++++ (‘+++++’=more than 10,000 fold higher tolerance) |

same assay, conditions: BT3(ΔPPO) transformants, two or more amino acid mutations; dark; relative to wild type at highest concentration (200, 400 μM)

| Molecule | Herbicide tolerance, sulfentrazone |
| --- | --- |
| B6 | ++ (‘++’=10-99 fold higher tolerance) |
| B7 | +++ (‘+++’=100-999 fold higher tolerance) |
| B8 | ++++ (‘++++’=1,000-9,999 fold higher tolerance) |
| B9 | ++++ (‘++++’=1,000-9,999 fold higher tolerance) |
| B10 | ++++ (‘++++’=1,000-9,999 fold higher tolerance) |
| B11 | ++++ (‘++++’=1,000-9,999 fold higher tolerance) |
